Data published in patent US20260200991A1.

Target: Flag tagged HIV-1 Env with the 7aa Erbin PDZ domain binding sequence fused to its C-terminus (HIV-1)
Assay: cell-based or functional assay

Work on Ebola VP40-Erbin PDZ fusion protein yielded a normalized VLP ELISA (Env display on VLPs) (fold decrease) of 2.
